{
  "source": "patent US20100203559A1",
  "about": "(published 2010)",
  "data": [
    {"target": "T1, SNAP-25206 uncleaved substrate (PC12 cells) (rat (PC12 cells), UniProt P60881 1-206)", "T1 construct": "also called uncleaved SNAP-25206 substrate; uncleaved SNAP-25", "T1 sequence (P60881 whole entry)": "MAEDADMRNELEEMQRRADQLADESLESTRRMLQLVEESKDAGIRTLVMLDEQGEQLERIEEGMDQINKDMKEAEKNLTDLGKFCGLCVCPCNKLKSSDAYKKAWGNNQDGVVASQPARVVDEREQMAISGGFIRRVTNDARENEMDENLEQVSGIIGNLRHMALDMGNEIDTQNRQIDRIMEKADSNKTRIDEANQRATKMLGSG", "assay": "cell-based activity assay (Western blot, PC12 cells), ascites 1:100", "values": [
      {"binder": "α-SNAP-25 monoclonal antibody 1D3B8 (antibody, V domains shown) VH: QVKLQESGAELVKPGASVKISCKASGYIFTDHALHWVRQKPEQGLEWIGYIFPGNGNIEYNEKFKGKATLTADKSSSTAYMQLNSLTSGDSAMYFCKKMDYWGQGTTVTVSS VL: DVLMTQTPLSLPVSLGDQASISCRSSQSIVHSNGNTYLEWYLQKPGQSPKLLIYKVSNRFSGVPDRFSGSGSGTDFTLKISRVEAEDLGVYYCFQGSHVPPTFGAGTKLELKR", "binding result": "no binding"},
      {"binder": "α-SNAP-25 monoclonal antibody 2E2A6 (antibody, V domains shown) VH: QVQLQQSDAELVKPGASVKISCRASGYTFTDHSIHWVKQQPGQGLEWIGYIFPGNGNIEYNDKFKGKATLTADKSSGTAYMQLNSLTSEDSAVYFCKRMGYWGQGTSVTVSS VL: DVLMTQTPLTLSVTIGQPASISCKSSQSLLYTNGKTYLTWLFQRPGQSPKRLIYLVSELDSGVPDRFSGSGSGTDFTLEITRVEAEDLGVYYCLQSAHFPFTFGSGTKLEIKR", "binding result": "no binding"},
      {"binder": "α-SNAP-25 monoclonal antibody 3C1A5 (antibody, V domains shown) VH: QVKLQESGAELVKPGASVKISCKASGYTFTDHSIHWVKQKPGQGLEWIGYLFPGNGNFEYNEKFKGKATLTADKSSSTVYMYLNSLTSEDSAVYFCKRMGYWGQGTTVTVSS VL: DVVMTQTPLTLSVTIGQPASISCKSSQSLLNTNGKTYLTWLIQRPGQSPQRLIYLVSKLDSGVPDRFSGSGSGTDFTLKISRVEAEDLGVYYCLQSSHFPFTFGSGTKLEIKR", "binding result": "no binding"}
    ]}
  ]
}
